Assay results reported in article PMC3145545 (Molecular Biology of the Cell, 2011).

B1: Pac11 1-86 VQ51,52DA (site 1 mutant) (domain or fragment)
chain: MERLKQLEEKRRQLKELRERRKQASLFPGSETMGHHPTEVHAKATMVSVSDATDMEEGSKIQEPQSAYLRRKEVITYDKGIQTDQI
B2: Pac11 1-86 IQ81,82DA (site 2 mutant) (domain or fragment)
chain: MERLKQLEEKRRQLKELRERRKQASLFPGSETMGHHPTEVHAKATMVSVSVQTDMEEGSKIQEPQSAYLRRKEVITYDKGDATDQI
B3: Drosophila LC8 (dynein light chain) (natural protein)
chain: MSDRKAVIKNADMSEEMQQDAVDCATQALEKYNIEKDIAAYIKKEFDKKYNPTWHCIVGRNFGSYVTHETRHFIYFYLGQVAILLFKSG

Key:
[1] = biological target: B3; assay: native gel or EMSA
[2] = biological target: B1; assay: AUC
[3] = biological target: B2; assay: AUC

binding result [1] | stoichiometry N [2] | stoichiometry N [3] | Binder
binds |  |  | B1
binds |  |  | B2
 | 1 LC8 per Pac11 | 1 LC8 per Pac11 | B3
